Legend:
IscU (Escherichia coli) = IscU (Escherichia coli) (UniProt P0ACD4); details: cited from earlier work
IscS [1] = biological target: T1, IscS (E. coli, UniProt P0A6B7 1-404); assay: NMR titration; competition: 15N HSQC of 100 uM 15N-labelled HscB in complex with unlabelled IscS (1:1), titrated with CyaY or apo-Fdx up to 1:1:3; details: both partners purified
T1 construct: IscS, pyridoxal phosphate dependent cysteine desulfurase of the isc operon, E. coli; subcloned by PCR from bacterial genomic DNA; For MST only, IscS was labelled with the amine-reactive dye NT-647 (about 0.67 dye molecules per IscS, RED-NHS kit); unlabelled in all other experiments; also called desulfurase IscS; wild-type IscS; source: E. coli BL21(DE3), purified (Ni-NTA, TEV cleavage, gel …)
T1 sequence (P0A6B7 whole entry): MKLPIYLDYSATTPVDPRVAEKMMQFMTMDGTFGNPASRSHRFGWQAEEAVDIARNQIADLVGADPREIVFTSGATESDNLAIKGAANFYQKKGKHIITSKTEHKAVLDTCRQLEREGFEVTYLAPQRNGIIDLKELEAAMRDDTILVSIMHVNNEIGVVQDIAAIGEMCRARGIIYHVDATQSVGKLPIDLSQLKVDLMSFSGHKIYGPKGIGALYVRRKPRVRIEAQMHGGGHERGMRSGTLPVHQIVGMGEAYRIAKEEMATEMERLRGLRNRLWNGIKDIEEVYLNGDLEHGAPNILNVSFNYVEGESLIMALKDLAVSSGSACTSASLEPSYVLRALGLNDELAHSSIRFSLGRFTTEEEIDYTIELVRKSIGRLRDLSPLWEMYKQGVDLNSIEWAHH

IscS [2] = biological target: T1, IscS; assay: MST; IscS labelled with NT-647 at 52 nM, HscB serially diluted 1:1 from 600 uM (12 solutions); 20 mM Tris-HCl pH 8, 150 mM NaCl, 0.5 mM TCEP, 0.05% Tween-20; 25 C; 40-60% LED power, 17% IR-laser power; 1:1 stoichiometry assumed; details: both partners purified

IscU (Escherichia coli), sequence (P0ACD4 whole entry): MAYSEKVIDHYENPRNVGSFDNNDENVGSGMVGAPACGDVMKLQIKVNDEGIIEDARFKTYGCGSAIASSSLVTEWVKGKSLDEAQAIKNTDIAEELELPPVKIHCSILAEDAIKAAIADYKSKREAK

IscS (from UniProt P0A6B7)
Kd (IscU (Escherichia coli)): 10 µM

B1: apo-Fdx (natural protein, E. coli, UniProt P0A9R4 1-111, looked up)
chain: MPKIVILPHQDLCPDGAVLEANSGETILDAALRNGIEIEHACEKSCACTTCHCIVREGFDSLPESSEQEDDMLDKAWGLEPESRLSCQARVTDEDLVVEIPRYTINHAREH
notes: Fdx, ferredoxin of the isc operon, E. coli; subcloned by PCR from bacterial genomic DNA; also called ferredoxin; source: E. coli BL21(DE3), purified (Ni-NTA, TEV cleavage, gel filtration)
binding result (IscS [1]): binds

B2: HscB (natural protein, E. coli)
chain: MDYFTLFGLPARYQLDTQALSLRFQDLQRQYHPDKFASGSQAEQLAAVQQSATINQAWQTLRHPLMRAEYLLSLHGFDLASEQHTVRDTAFLMEQLELREELDEIEQAKDEARLESFIKRVKKMFDTRHQLMVEQLDNETWDAAADTVRKLRFLDKLRSSAEQLEEKLLDF
notes: HscB, co-chaperone of the isc operon, E. coli; subcloned by PCR from bacterial genomic DNA; Uniformly 15N-labelled (HSQC) or 2H,15N-labelled (cross saturation) for NMR; unlabelled in MST, cross-linking and when added to 15N IscU; also called co-chaperone HscB; source: E. coli BL21(DE3), purified (Ni-NTA, TEV cleavage, gel filtration)
Kd (IscS [2]): 10 to 30 µM

Reference: publication PMC5037179 (Frontiers in Molecular Biosciences, 2016)
